Patent publication US20230279147A1 (AELAN CELL TECHNOLOGIES, published 2023)
Where no end group is shown, it is not given here. Me2 = dimethyl on Lys side chain (K(me2))

T1: H1.0K180me2 peptide (human)
T1 construct: also called H1.0Kme2 peptide
T1 peptide: CAKPVKASKPKKAKPVK(Me2)PK


Legend:
[1] = system: recombinant human H1.0 protein, full length, unmethylated
H1.0K180me2 peptide = target: T1, H1.0K180me2 peptide; assay: ELISA on coated peptides, compared at the antibody concentration that gives the threshold O.D. 1.5
Procedure: The specificity of the recombinant rabbit anti-H1.0K180me2 monoclonal IgG antibody clones for H1.0K180me2 peptide was determined using ELISA in FIG. 2A. Wells were coated with H1.0K180me2 peptide; 50 ul of peptide solution (5 ug/ml) was used to coat each well. 100 ul of each clone antibody was added to wells in a 2× dilution series. Curves for each peptide were generated by plotting antibody concentration against measured O.D at 450 nm. In order to directly compare the binding efficiencies of the different clones, a threshold cut-off was selected that intersected the linear range of each of the clone titration curves (horizontal dashed line at O.D. 1.5). Clone A (RW24) has the highest binding affinity for H1.0K180me2 peptide.
The non-specific binding of the antibody clones to unmodified H1.0 peptide was also determined by ELISA as above in FIG. 2B. Clones D (RW28) and E (RW36) both bound to unmodified H1.0 peptide with high affinity. At the threshold concentration calculated above, Clone A (RW24) was 20× more efficient at binding H1.0K180me2 peptide than unmodified H1.0 peptide, Clone B (RW6): 23×, Clone C (RW37): 22×, Clone D (RW28): 2×, Clone E (RW36): 5×.

| fold more efficient at binding H1.0K180me2 peptide than unmodified H1.0 peptide (H1.0K180me2 peptide) [×] | Molecule | in vitro methylation reaction analysed by LC-MS [1] |
| --- | --- | --- |
| – | recombinant G9A (methyltransferase) | G9A specifically methylates several C-terminal lysine residues, including H1.0K180me2 |
| 20 | Clone A (RW24), recombinant rabbit anti-H1.0K180me2 monoclonal IgG antibody (antibody, V domains shown, Tested as a full-length recombinant rabbit monoclonal IgG) VH: QSVEESGGRLVTPGTPLTLTCTVSGFSLNNYVMMWVRQAPGEGLEWIAAITTGGTTYYANWAKGRFTISKTSTTVDLKIISPTTEDTATYFCARDLYGDTSDDIWDAFDPWGPGTLVTVSS VL: DPVLTQTPSSVSAAVGGTVTISCQSSESVYKNNNLAWYQQKPGQPPKLLIYSASTLASGVPSRFKGSGSGTQFTLTISGVQCDDAATYYCLGVYSDIFAF | – |
